# Experimental data taken from paper PMC9630320, “Interaction between DLC-1 and SAO-1 facilitates CED-4 translocation during apoptosis in the Caenorhabditis elegans germline” (Cell Death Discovery, 2022).
# T1: Trx-His6-DLC-1, Q22799
# T1 chain: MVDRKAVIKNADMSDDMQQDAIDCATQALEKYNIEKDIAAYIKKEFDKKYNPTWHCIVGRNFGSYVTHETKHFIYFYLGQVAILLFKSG
# Experiments:
# SAO-1::RFP (C. elegans) = test: FRET or BRET; fluorescence lifetime imaging (FLIM) of the GFP donor in live adult worms; TCSPC
# [1] = target: purified C-terminal region (residues 182–226) of SAO-1 (ITC) (C. elegans); test: ITC; 25 °C; 50 mM Tris-Cl pH 7.5, 100 mM NaCl; 400 μM DLC-1 injected into 40 μM SAO-1; 13 titrations; one-site binding model
# [2] = target: SAO-1C1(182-205) peptide (crystal) (C. elegans); test: crystal structure; sitting drop vapor diffusion at 16 °C; 0.2 M potassium chloride, 0.05 M HEPES pH 7.5, 35% pentaerythritol propoxylate; 2.4 Å
# [3] = target: the molecule itself; test: as above
# Trx-His6-DLC-1, Q22799 = target: T1, Trx-His6-DLC-1, Q22799; test: pull-down (GST pull-down, Western blot with His antibody, band quantification); conditions: chain shown with the change;; parent: est. 1.0; read off a plot
molecule,measurement,setting,value
DLC-1::GFP (from UniProt Q22799 1-89) (natural protein),GFP mean fluorescence lifetime (τ) with SAO-1::RFP,SAO-1::RFP (C. elegans),2.85 ns
full-length DLC-1 (ITC and crystallography) (from UniProt Q22799 1-89) (natural protein),Kd,[1],500 nM
same,stoichiometry N (DLC-1 per SAO-1),[1],2
same,stoichiometry N (DLC-1 per SAO-1),[2],2
"full-length DLC-1 (ITC and crystallography) (natural protein, C. elegans, UniProt Q22799 1-89, looked up, dynein light chain 1 (DLC-1), C. elegans; Same construct as m1; Forms dimers in the crystal) MVDRKAVIKNADMSDDMQQDAIDCATQALEKYNIEKDIAAYIKKEFDKKYNPTWHCIVGRNFGSYVTHETKHFIYFYLGQVAILLFKSG",binding result,[3],binds
GST-SAO-1 V187A; T189A (protein) MHKNGNNGPVIDTKWHYLGPDSEKYGPYMSKDMLFWLQAGYFNDGLQLKTENEPNYHTLGEWSQLLGTHPFSMPVHSLDATIAQMNSMRPHGAMMMVPPGLQNQFQPPMPMRFPPFLPMPLLHQMNQNGPPMGAQMHSQPPSEPIDAGSLSHTPDSENEFQGHGRKPHHHQQILAHQHIPQMQHANAAADQVVMKSVECQTEPVEISKEQASRVLSELLGQMVIIN,ratio to parent,"Trx-His6-DLC-1, Q22799",0.57
GST-SAO-1 C199A; Q200A; T201A (protein) MHKNGNNGPVIDTKWHYLGPDSEKYGPYMSKDMLFWLQAGYFNDGLQLKTENEPNYHTLGEWSQLLGTHPFSMPVHSLDATIAQMNSMRPHGAMMMVPPGLQNQFQPPMPMRFPPFLPMPLLHQMNQNGPPMGAQMHSQPPSEPIDAGSLSHTPDSENEFQGHGRKPHHHQQILAHQHIPQMQHANVATDQVVMKSVEAAAEPVEISKEQASRVLSELLGQMVIIN,ratio to parent,"Trx-His6-DLC-1, Q22799",0.15
